In patent CN114395044A (HEFEN TIANKPORT IMMUNOLOGICAL DRUG CO LTD, dated 2022):

Legend:
[1] = target: T1, 人B7H6 (ACRO biosystems, 货号B76-H52H8) (human, UniProt Q68D85 25-262); assay: ELISA, human B7H6 coated at 2 μg/mL, HRP rabbit anti-human IgG, OD450
T1 construct: Bought protein coated on the ELISA plate at 2 μg/mL; also called 人B7H6蛋白; B7H6抗原
T1 sequence (looked up): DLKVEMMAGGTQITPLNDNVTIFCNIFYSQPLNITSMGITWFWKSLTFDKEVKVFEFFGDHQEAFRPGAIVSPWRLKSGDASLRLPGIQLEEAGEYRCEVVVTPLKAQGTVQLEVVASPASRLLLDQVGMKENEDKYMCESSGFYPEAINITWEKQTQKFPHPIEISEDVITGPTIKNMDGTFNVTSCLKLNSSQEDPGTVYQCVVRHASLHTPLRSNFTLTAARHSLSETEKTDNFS

[2] = target: T2, 人CD16a抗原 (ACRO biosystems, 货号CDA-H5220) (human, UniProt P08637 17-208); assay: ELISA, human CD16a coated at 2 μg/mL, HRP rabbit anti-human IgG, OD450
T2 construct: Bought protein coated on the ELISA plate at 2 μg/mL; also called 人CD16a蛋白; CD16抗原
T2 sequence (P08637 17-208 limits assumed): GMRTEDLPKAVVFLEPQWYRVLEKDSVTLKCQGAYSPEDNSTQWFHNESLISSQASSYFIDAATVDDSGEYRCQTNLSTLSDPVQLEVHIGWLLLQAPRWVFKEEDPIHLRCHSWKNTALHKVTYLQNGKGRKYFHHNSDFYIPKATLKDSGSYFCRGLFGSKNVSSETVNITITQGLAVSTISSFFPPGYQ

B1: CD16×B7H6重组双特异性抗体 (bispecific antibody, human IgG1, L234A L235A)
chain 1: not shown
chain 2: DIVLTQTPLSLSVTPGQPASISCKASQSVDYDGDSYMNWYLQKPGQPPQLLIYAASTLHSGIPDRFSGSGSGTDFTLKISRVEAEDVGVYYCQQSKEDPRTFGQGTKLEIKGGGGSGGGGSGGGGSEVQLVQSGAEVKKPGASVKVSCKASGYTFTDYNMDWVRQAPGQGLEWIGDINPNNGGTLYNQKFRGRVTLTVDTSISTAYMELSRLRSDDTAVYYCARSEVFYGNYADYWGQGTTVTVSSEPKSCDKTHTCPPCPAPEAAGGPSVFLFPPKPKDTLMISRTPEVTCVVVDVSHEDPEVKFNWYVDGVEVHNAKTKPREEQYNSTYRVVSVLTVLHQDWLNGKEYKCKVSNKALPAPIEKTISKAKGQPREPQVCTLPPSRDELTKNQVSLSCAVKGFYPSDIAVEWESNGQPENNYKTTPPVLDSDGSFFLVSKLTVDKSRWQQGNVFSCSVMHEALHNHYTQKSLSLSPGK
notes: Heterodimer of two scFv-Fc chains (knob-into-hole); Expressed in ExpiCHO-S, purified on protein A; also called NKmab; CD16×B7H6双特异性抗体
- binding result [1]: binds
- binding result [2]: binds
